What was measured:
[1] = molecular target: interleukin 6 (IL-6), R&D Systems 206-IL-010 (UniProt P05231); test: c-PLA, buffer; IL-6 1.00E-08 M
[2] = molecular target: interleukin 6 (IL-6), R&D Systems 206-IL-010 (UniProt P05231); test: c-PLA, buffer; IL-6 1.00E-09 M
[3] = molecular target: interleukin 6 (IL-6), R&D Systems 206-IL-010 (UniProt P05231); test: c-PLA, buffer; IL-6 1.00E-10 M
[4] = molecular target: interleukin 6 (IL-6), R&D Systems 206-IL-010 (UniProt P05231); test: c-PLA, buffer; IL-6 1.00E-11 M
[5] = molecular target: interleukin 6 (IL-6), R&D Systems 206-IL-010 (UniProt P05231); test: c-PLA, buffer; IL-6 1.00E-12 M
[6] = molecular target: interleukin 6 (IL-6), R&D Systems 206-IL-010 (UniProt P05231); test: c-PLA, buffer; IL-6 1.00E-13 M
[7] = molecular target: interleukin 6 (IL-6), R&D Systems 206-IL-010 (UniProt P05231); test: c-PLA, buffer; IL-6 1.00E-14 M
[8] = molecular target: interleukin 6 (IL-6), R&D Systems 206-IL-010 (UniProt P05231); test: t-PLA, buffer; IL-6 1.00E-08 M
[9] = molecular target: interleukin 6 (IL-6), R&D Systems 206-IL-010 (UniProt P05231); test: t-PLA, buffer; IL-6 1.00E-09 M
[10] = molecular target: interleukin 6 (IL-6), R&D Systems 206-IL-010 (UniProt P05231); test: t-PLA, buffer; IL-6 1.00E-10 M
[11] = molecular target: interleukin 6 (IL-6), R&D Systems 206-IL-010 (UniProt P05231); test: t-PLA, buffer; IL-6 1.00E-11 M
[12] = molecular target: interleukin 6 (IL-6), R&D Systems 206-IL-010 (UniProt P05231); test: t-PLA, buffer; IL-6 1.00E-12 M
[13] = molecular target: interleukin 6 (IL-6), R&D Systems 206-IL-010 (UniProt P05231); test: t-PLA, buffer; IL-6 1.00E-13 M
[14] = molecular target: interleukin 6 (IL-6), R&D Systems 206-IL-010 (UniProt P05231); test: t-PLA, buffer; IL-6 1.00E-14 M
[15] = molecular target: interleukin 6 (IL-6), R&D Systems 206-IL-010 (UniProt P05231); test: SPR (Biacore T200), 1:1 global fit
[16] = molecular target: interleukin 6 (IL-6), R&D Systems 206-IL-010 (UniProt P05231); test: SPR, isoaffinity graph
[17] = molecular target: interleukin 6 (IL-6), R&D Systems 206-IL-010 (UniProt P05231); test: SPR (Biacore T200), biotinylated antibody on CAP chip, 1:1 fit
[18] = molecular target: interleukin 6 (IL-6), R&D Systems 206-IL-010 (UniProt P05231); test: BLI (Octet RED), antibody on protein G sensors, 1:1 global fit
[19] = molecular target: interleukin 6 (IL-6), R&D Systems 206-IL-010 (UniProt P05231); test: SPR, off-rate given by the software, beyond the sensitivity range of the instrument
[20] = molecular target: interleukin 6 (IL-6), R&D Systems 206-IL-010 (UniProt P05231); test: SPR, value from the software's off-rate, beyond the sensitivity range of the instrument

UniProt P05231, sequence (P05231 30-212 limits assumed): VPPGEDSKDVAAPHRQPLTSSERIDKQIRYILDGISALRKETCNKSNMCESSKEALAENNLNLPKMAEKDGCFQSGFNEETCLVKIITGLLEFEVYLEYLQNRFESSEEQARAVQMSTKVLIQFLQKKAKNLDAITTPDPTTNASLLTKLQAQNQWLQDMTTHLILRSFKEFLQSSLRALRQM

affinity-purified polyclonal anti-IL-6 antibody (R&D Systems AF-206-NA)
Counts [1]: 137000 | SBR [1]: 7540 | Counts [2]: 312000 | SBR [2]: 17200 | Counts [3]: 30800 | SBR [3]: 1700 | Counts [4]: 1980 | SBR [4]: 109 | Counts [5]: 141 | SBR [5]: 7.8 | Counts [6]: 84.3 | SBR [6]: 4.6 | Counts [7]: 55.2 | SBR [7]: 3 | Counts [8]: 2.05e+09 | SBR [8]: 1410 | Counts [9]: 3.87e+09 | SBR [9]: 2670 | Counts [10]: 3.88e+08 | SBR [10]: 267 | Counts [11]: 3.72e+07 | SBR [11]: 26 | Counts [12]: 1.16e+07 | SBR [12]: 8 | Counts [13]: 2.68e+06 | SBR [13]: 1.8 | Counts [14]: 3.03e+06 | SBR [14]: 2.1 | Kd [15]: < 4.3 pM | koff [15]: < 1e-05 s⁻¹ | kon [15]: 2.33e+06 M⁻¹ s⁻¹ | Kd [16]: < 5 pM | Kd [17]: < 4.3 pM | koff [17]: < 1e-05 s⁻¹ | kon [17]: 2.3e+06 M⁻¹ s⁻¹ | Kd [18]: < 2.49 pM | koff [18]: < 1e-06 s⁻¹ | kon [18]: 402000 M⁻¹ s⁻¹ | koff [19]: 4.65e-07 s⁻¹ | Kd [20]: 0.199 pM

Source: patent US20190360025A1
